Our source for the Km and kcat values is publication doi:10.1101/2023.11.05.564366v1.

Common to all, as to assay: purified protein
Holding throughout (details): 50 °C, 1100 rpm

Substrate in data set [1]: O=C(O)c1ccc(C(=O)OCCO)cc1
Substrate in data set [2]: O=C(O)c1ccc(C(=O)OCCOC(=O)c2ccc(C(=O)OCCO)cc2)cc1
Substrate in data set [3]: O=C(O)c1ccc(C(=O)OCCOC(=O)c2ccc(C(=O)OCCOC(=O)c3ccc(C(=O)O)cc3)cc2)cc1
Substrate in data set [4]: O=C(OCCO)c1ccc(C(=O)OCCO)cc1

B1: LCCICCG (unidentified prokaryotic organism; D238C/F243I/S283C/Y127G) (protein)
chain: QSNPYQRGPNPTRSALTADGPFSVATYTVSRLSVSGFGGGVIYYPTGTSLTFGGIAMSPGYTADASSLAWLGRRLASHGFVVLVINTNSRFDGPDSRASQLSAALNYLRTSSPSAVRARLDANRLAVAGHSMGGGGTLRIAEQNPSLKAAVPLTPWHTDKTFNTSVPVLIVGAEADTVAPVSQHAIPFYQNLPSTTPKVYVELCNASHIAPNSNNAAISVYTISWMKLWVDNDTRYRQFLCNVNDPALCDFRTNNRHCQ
What is called Km is the concentration of substrate that gives half-maximal velocity. Usually kcat stands for the number of substrate molecules converted per active site and unit of time at saturation. With B1, the Km in data set [1] is 920 ± 220 µM; in data set [2], 210 ± 91 µM; in data set [3] it was 670 ± 610 µM; in data set [4], 750 ± 270 µM. Further, the kcat in data set [1] is 0.058 ± 0.0024 s⁻¹; in data set [2], 9.1 ± 2.71 s⁻¹; in data set [3], 331 ± 142 s⁻¹; in data set [4], 8.2 ± 1.22 s⁻¹.
